In this series the test system is dPsCas13b-133FSY (in HEK293T) A133FSY (fluorosulfate-L-tyrosine) (Prevotella sp. P5-125). In words: pulldown. Conditions: RIP RT-qPCR in HEK293T; no enrichment without crRNA.

crACTB guide ; ACTB mRNA had a binding signal (fold over dPsCas13b-WT) of 4.

The values are drawn from patent US20240262791.
